± gives the standard deviation of the averaged measurements.
The sequences below were run on Saccharomyces cerevisiae (assay: protein stability index of tFT-peptide fusion (C-terminal peptide) (PSI (0-1 scale)); higher = more stable (slower turnover)). Details: genetic background: cdc34-1; temperature: 37 C.
Procedure: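 MPS profiling in S. cerevisiae of the tFT-X12 degron library: putative degron peptides plus stable controls, 12 aa, fused to the C-terminus of a sfGFP-mCherry timer. Cells are FACS-sorted into 8 mCherry/sfGFP bins and deep-sequenced. PSI runs from 0 (unstable) to 1 (stable). Backgrounds are wild type, das1Δ and doa10Δ at 30 °C, and wild type, das1Δ, cdc34-1 and cdc53-1 at 37 °C; 2-3 technical replicates each.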
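Further: PSI is a weighted mean of sequencing reads over stability bins, variants kept only with over 10 reads, mCherry proximal and sfGFP distal, peptide attached via GGGS linker.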

Sequence | protein stability index
LWVMVLFFPGCS | 0.3714 ± 0.0026
LWVSHFVILIVS | 0.122 ± 0.032
LYRSLLLSFCVL | 0.593 ± 0.023
LYSLRRNWLRTP | 0.637 ± 0.032
MALAVRVVPCGA | 0.373 ± 0.012
MALAVRVVSCGA | 0.294 ± 0.015
MCVCLLVRVVPS | 0.188 ± 0.0053
MGDFGFIFVFFL | 0.544 ± 0.007
MVVSLVLCFWAS | 0.248 ± 0.026
MWRWASKCRFSM | 0.668 ± 0.025
NFSALECKVQLT | 0.747 ± 0.076
NFTDMGRSLYIN | 0.592 ± 0.056
NHKNANAATLIN | 0.645 ± 0.053
NVVIGLHLLVYI | 0.205 ± 0.021
NYVVFVRGIKIT | 0.585 ± 0.039
PCVLAIYVWIRS | 0.0479 ± 0.016
PDRSTILHISGF | 0.721 ± 0.021

Sequence | protein stability index
PETSRFALNEWG | 0.709 ± 0.04
PFFFSFILVLFW | 0.172 ± 0.0087
PFFHVFLLLLLI | 0.153 ± 0.011
PIKIYGYLTTVV | 0.597 ± 0.024
PISLYFVWFFFF | 0.242 ± 0.0081
PLFPLLGLLFFF | 0.595 ± 0.029
PPGLLPPCLLVV | 0.358 ± 0.027
PPLPPVCPSPSL | 0.665 ± 0.031
PPPNSSTSPPCS | 0.6572 ± 0.003
PPRRCFPLLLFF | 0.44 ± 0.094
PPSPVPPIWYLA | 0.636 ± 0.037
PRQGGDFVARVG | 0.691 ± 0.0076
PRSFFYIQFVFA | 0.301 ± 0.016
PSDVLERVIRLL | 0.616 ± 0.027
PSLPPLPPFAAL | 0.73 ± 0.0098
PSPVPPPSSPSP | 0.682 ± 0.029

Same assay, conditions: genetic background: cdc53-1; temperature: 37 C

Sequence | protein stability index
LWVMVLFFPGCS | 0.493 ± 0.0033
LWVSHFVILIVS | 0.105 ± 0.0073
LYRSLLLSFCVL | 0.6381 ± 0.00019
LYSLRRNWLRTP | 0.726 ± 0.016
MALAVRVVPCGA | 0.385 ± 0.011
MALAVRVVSCGA | 0.3333 ± 0.0024
MCVCLLVRVVPS | 0.3241 ± 0.00049
MGDFGFIFVFFL | 0.606 ± 0.035
MVVSLVLCFWAS | 0.331 ± 0.069
MWRWASKCRFSM | 0.706 ± 0.015
NFSALECKVQLT | 0.727 ± 0.018
NFTDMGRSLYIN | 0.788 ± 0.018
NHKNANAATLIN | 0.7192 ± 0.0061
NVVIGLHLLVYI | 0.313 ± 0.041
NYVVFVRGIKIT | 0.609 ± 0.02
PCVLAIYVWIRS | 0.169 ± 0.019
PDRSTILHISGF | 0.7606 ± 0.001

Sequence | protein stability index
PETSRFALNEWG | 0.748 ± 0.018
PFFFSFILVLFW | 0.172 ± 0.036
PFFHVFLLLLLI | 0.1359 ± 0.00032
PIKIYGYLTTVV | 0.644 ± 0.023
PISLYFVWFFFF | 0.363 ± 0.033
PLFPLLGLLFFF | 0.6147 ± 0.0041
PPGLLPPCLLVV | 0.373 ± 0.0093
PPLPPVCPSPSL | 0.74 ± 0.027
PPPNSSTSPPCS | 0.725 ± 0.017
PPRRCFPLLLFF | 0.4471 ± 0.0019
PPSPVPPIWYLA | 0.7595 ± 0.0041
PRQGGDFVARVG | 0.726 ± 0.024
PRSFFYIQFVFA | 0.369 ± 0.025
PSDVLERVIRLL | 0.714 ± 0.023
PSLPPLPPFAAL | 0.7412 ± 0.0013
PSPVPPPSSPSP | 0.728 ± 0.027

Same assay, conditions: genetic background: das1 deletion; temperature: 30 C

Sequence | protein stability index
LWVMVLFFPGCS | 0.307 ± 0.042
LWVSHFVILIVS | 0.135 ± 0.03
LYRSLLLSFCVL | 0.528 ± 0.011
LYSLRRNWLRTP | 0.672 ± 0.016
MALAVRVVPCGA | 0.291 ± 0.028
MALAVRVVSCGA | 0.265 ± 0.032
MCVCLLVRVVPS | 0.211 ± 0.029
MGDFGFIFVFFL | 0.427 ± 0.027
MVVSLVLCFWAS | 0.257 ± 0.024
MWRWASKCRFSM | 0.634 ± 0.015
NFSALECKVQLT | 0.625 ± 0.018
NFTDMGRSLYIN | 0.663 ± 0.015
NHKNANAATLIN | 0.641 ± 0.036
NVVIGLHLLVYI | 0.212 ± 0.047
NYVVFVRGIKIT | 0.533 ± 0.026
PCVLAIYVWIRS | 0.154 ± 0.037
PDRSTILHISGF | 0.642 ± 0.034

Sequence | protein stability index
PETSRFALNEWG | 0.665 ± 0.0095
PFFFSFILVLFW | 0.219 ± 0.0092
PFFHVFLLLLLI | 0.188 ± 0.022
PIKIYGYLTTVV | 0.517 ± 0.032
PISLYFVWFFFF | 0.251 ± 0.024
PLFPLLGLLFFF | 0.513 ± 0.032
PPGLLPPCLLVV | 0.307 ± 0.035
PPLPPVCPSPSL | 0.658 ± 0.0035
PPPNSSTSPPCS | 0.661 ± 0.036
PPRRCFPLLLFF | 0.445 ± 0.022
PPSPVPPIWYLA | 0.707 ± 0.017
PRQGGDFVARVG | 0.638 ± 0.016
PRSFFYIQFVFA | 0.233 ± 0.016
PSDVLERVIRLL | 0.647 ± 0.019
PSLPPLPPFAAL | 0.676 ± 0.051
PSPVPPPSSPSP | 0.67 ± 0.026

Same assay, conditions: genetic background: das1 deletion; temperature: 37 C

Sequence | protein stability index
LWVMVLFFPGCS | 0.552 ± 0.024
LWVSHFVILIVS | 0.236 ± 0.0048
LYRSLLLSFCVL | 0.639 ± 0.018
LYSLRRNWLRTP | 0.772 ± 0.0095
MALAVRVVPCGA | 0.4637 ± 0.0008
MALAVRVVSCGA | 0.4146 ± 0.0036
MCVCLLVRVVPS | 0.41 ± 0.01
MGDFGFIFVFFL | 0.6479 ± 0.0044
MVVSLVLCFWAS | 0.409 ± 0.016
MWRWASKCRFSM | 0.759 ± 0.0097
NFSALECKVQLT | 0.725 ± 0.017
NFTDMGRSLYIN | 0.775 ± 0.0087
NHKNANAATLIN | 0.7266 ± 0.0038
NVVIGLHLLVYI | 0.419 ± 0.017
NYVVFVRGIKIT | 0.633 ± 0.011
PCVLAIYVWIRS | 0.2704 ± 0.0022
PDRSTILHISGF | 0.744 ± 0.022

Sequence | protein stability index
PETSRFALNEWG | 0.755 ± 0.0086
PFFFSFILVLFW | 0.286 ± 0.034
PFFHVFLLLLLI | 0.258 ± 0.0067
PIKIYGYLTTVV | 0.653 ± 0.02
PISLYFVWFFFF | 0.369 ± 0.04
PLFPLLGLLFFF | 0.592 ± 0.02
PPGLLPPCLLVV | 0.444 ± 0.02
PPLPPVCPSPSL | 0.7274 ± 0.0068
PPPNSSTSPPCS | 0.683 ± 0.011
PPRRCFPLLLFF | 0.546 ± 0.01
PPSPVPPIWYLA | 0.753 ± 0.029
PRQGGDFVARVG | 0.7341 ± 0.0065
PRSFFYIQFVFA | 0.431 ± 0.011
PSDVLERVIRLL | 0.7309 ± 0.00081
PSLPPLPPFAAL | 0.75 ± 0.021
PSPVPPPSSPSP | 0.717 ± 0.022

Reference: the supplement of paper PMC10724198
